System: O=P(O)(O)OP(=O)(O)O
Experiment: cells, lysate or membranes
Conditions: 0 mM added NaCl, 100 mM KCl, pH 7.2, 30 °C, Mg2PPi substrate without excess Mg2+, Na+ from Na4PPi present

Chain of MVP (Methanosarcina mazei Go1) (chain, as listed by the source): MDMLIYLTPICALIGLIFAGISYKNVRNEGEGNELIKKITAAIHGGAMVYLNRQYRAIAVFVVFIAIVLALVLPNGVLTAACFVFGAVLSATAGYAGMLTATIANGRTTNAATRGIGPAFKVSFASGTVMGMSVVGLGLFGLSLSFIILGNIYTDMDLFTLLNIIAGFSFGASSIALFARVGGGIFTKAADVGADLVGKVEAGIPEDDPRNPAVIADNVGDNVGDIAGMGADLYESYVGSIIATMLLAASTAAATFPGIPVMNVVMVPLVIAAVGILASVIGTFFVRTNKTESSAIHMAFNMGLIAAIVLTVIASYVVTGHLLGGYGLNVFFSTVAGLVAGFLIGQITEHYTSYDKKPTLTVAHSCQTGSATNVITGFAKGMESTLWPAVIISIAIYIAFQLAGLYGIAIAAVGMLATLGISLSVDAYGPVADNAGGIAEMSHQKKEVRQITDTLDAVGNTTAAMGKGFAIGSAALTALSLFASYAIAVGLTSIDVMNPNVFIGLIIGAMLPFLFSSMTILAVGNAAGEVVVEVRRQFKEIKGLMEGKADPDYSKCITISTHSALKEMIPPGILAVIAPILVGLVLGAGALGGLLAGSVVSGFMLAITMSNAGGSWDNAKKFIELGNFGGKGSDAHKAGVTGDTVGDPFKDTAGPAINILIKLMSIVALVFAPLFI

MVP (Methanosarcina mazei Go1)
K0.5: 0.27 ± 0.27 mM

Reference: article PMC7438732, “The H^+-Translocating Inorganic Pyrophosphatase From Arabidopsis thaliana Is More Sensitive to Sodium Than Its Na^+-Translocating Counterpart From Methanosarcina mazei” (Frontiers in Plant Science, 2020)
